Test results taken from publication PMC5571166, “Mapping the key residues of SufB and SufD essential for biosynthesis of iron-sulfur clusters” (Scientific Reports, 2017).

Legend:
Assay in all cases: SEC; SufBCD complexes co-expressed in E. coli and co-purified on Phenyl FF, Q XL and Sephacryl S-200; eluted from gel filtration at about 160 kDa; subunit composition checked by SDS-PAGE of the purified sample
Conditions in all cases: both partners purified
[1] = molecular target: T1, SufB (wild type) (Escherichia coli, UniProt P77522 1-495)
T1 construct: SufB of the Escherichia coli sufABCDSE operon; Expressed from the cloned suf genes with no tag mentioned; The host is stated only for the variant complexes (YT2512, pGSO164-derived plasmid); One SufB per SufBCD complex (SufB:SufC:SufD 1:2:1); also called SufB subunit of the wild-type SufBCD complex; source: purified as the wild-type SufBCD complex; E. coli YT2512 (ΔsufABCDSE) from pBBR-sufAB, in …
T1 sequence: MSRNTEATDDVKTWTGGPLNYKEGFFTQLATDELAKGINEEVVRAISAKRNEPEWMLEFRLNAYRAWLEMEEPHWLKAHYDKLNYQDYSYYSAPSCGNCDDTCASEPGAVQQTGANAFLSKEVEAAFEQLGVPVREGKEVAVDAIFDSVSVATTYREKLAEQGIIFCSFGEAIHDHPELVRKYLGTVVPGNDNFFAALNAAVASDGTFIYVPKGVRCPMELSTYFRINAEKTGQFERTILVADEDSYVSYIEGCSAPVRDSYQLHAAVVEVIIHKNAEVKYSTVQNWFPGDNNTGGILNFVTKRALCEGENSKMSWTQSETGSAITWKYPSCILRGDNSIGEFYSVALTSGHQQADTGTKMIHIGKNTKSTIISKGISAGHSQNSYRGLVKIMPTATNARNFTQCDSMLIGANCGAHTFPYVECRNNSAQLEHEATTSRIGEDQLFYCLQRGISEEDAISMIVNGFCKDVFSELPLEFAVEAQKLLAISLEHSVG

[2] = molecular target: T2, SufB^N228A (Escherichia coli, UniProt P77522 1-495, SufB^N228A)
T2 construct: SufB of the Escherichia coli sufABCDSE operon
T2 sequence: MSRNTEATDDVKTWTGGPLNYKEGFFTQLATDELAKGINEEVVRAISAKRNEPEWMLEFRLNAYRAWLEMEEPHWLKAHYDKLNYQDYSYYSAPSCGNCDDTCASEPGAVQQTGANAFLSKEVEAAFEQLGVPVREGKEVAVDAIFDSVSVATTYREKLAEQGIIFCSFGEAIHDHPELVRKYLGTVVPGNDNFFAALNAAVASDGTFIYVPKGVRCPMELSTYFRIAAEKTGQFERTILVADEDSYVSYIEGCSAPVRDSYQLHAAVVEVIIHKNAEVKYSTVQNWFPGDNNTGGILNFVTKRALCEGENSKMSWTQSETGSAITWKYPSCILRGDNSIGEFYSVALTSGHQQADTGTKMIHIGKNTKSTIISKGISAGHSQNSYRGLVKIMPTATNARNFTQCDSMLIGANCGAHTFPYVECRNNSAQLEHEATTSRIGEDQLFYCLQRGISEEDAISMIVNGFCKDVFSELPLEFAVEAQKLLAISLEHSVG

[3] = molecular target: T3, SufB^C254A (Escherichia coli, UniProt P77522 1-495, SufB^C254A)
T3 construct: SufB of the Escherichia coli sufABCDSE operon; source: pBBR-sufAB carrying the mutation, in bacterial extract
T3 sequence: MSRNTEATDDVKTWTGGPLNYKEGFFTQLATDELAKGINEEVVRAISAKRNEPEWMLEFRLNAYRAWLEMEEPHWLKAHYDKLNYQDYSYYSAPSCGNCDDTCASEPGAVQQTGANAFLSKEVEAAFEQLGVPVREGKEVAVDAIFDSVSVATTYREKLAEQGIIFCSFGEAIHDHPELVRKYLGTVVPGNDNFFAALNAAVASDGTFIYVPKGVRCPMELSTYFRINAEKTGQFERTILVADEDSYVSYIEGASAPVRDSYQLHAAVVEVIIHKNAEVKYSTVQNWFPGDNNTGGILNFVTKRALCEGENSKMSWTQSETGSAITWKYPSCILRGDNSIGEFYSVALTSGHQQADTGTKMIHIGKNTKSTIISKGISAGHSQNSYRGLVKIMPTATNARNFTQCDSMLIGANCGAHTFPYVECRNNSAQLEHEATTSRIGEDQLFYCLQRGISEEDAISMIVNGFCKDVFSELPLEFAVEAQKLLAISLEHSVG

[4] = molecular target: T4, SufB^C405A (Escherichia coli, UniProt P77522 1-495, SufB^C405A)
T4 construct: SufB of the Escherichia coli sufABCDSE operon
T4 sequence: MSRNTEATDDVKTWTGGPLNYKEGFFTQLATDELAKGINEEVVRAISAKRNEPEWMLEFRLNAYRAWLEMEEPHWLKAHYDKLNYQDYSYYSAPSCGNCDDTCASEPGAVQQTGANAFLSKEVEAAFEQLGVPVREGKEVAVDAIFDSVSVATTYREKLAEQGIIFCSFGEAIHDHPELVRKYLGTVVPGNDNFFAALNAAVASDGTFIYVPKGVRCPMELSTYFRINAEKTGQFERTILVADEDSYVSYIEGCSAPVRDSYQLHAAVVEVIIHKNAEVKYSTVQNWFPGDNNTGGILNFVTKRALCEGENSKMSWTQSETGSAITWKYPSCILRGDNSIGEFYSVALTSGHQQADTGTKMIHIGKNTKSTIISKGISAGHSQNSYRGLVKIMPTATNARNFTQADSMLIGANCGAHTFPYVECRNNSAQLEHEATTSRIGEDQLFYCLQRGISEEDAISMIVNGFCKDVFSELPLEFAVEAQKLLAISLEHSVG

Measured: binding result

B1: SufC (natural protein, Escherichia coli)
chain: MLSIKDLHVSVEDKAILRGLSLDVHPGEVHAIMGPNGSGKSTLSATLAGREDYEVTGGTVEFKGKDLLALSPEDRAGEGIFMAFQYPVEIPGVSNQFFLQTALNAVRSYRGQETLDRFDFQDLMEEKIALLKMPEDLLTRSVNVGFSGGEKKRNDILQMAVLEPELCILDESDSGLDIDALKVVADGVNSLRDGKRSFIIVTHYQRILDYIKPDYVHVLYQGRIVKSGDFTLVKQLEEQGYGWLTEQQ
notes: SufC of the Escherichia coli sufABCDSE operon; also called SufC subunit of the SufBCD complex
binds: all assays above

B2: SufD (natural protein, Escherichia coli)
chain: MAGLPNSSNALQQWHHLFEAEGTKRSPQAQQHLQQLLRTGLPTRKHENWKYTPLEGLINSQFVSIAGEISPQQRDALALTLDSVRLVFVDGRYVPALSDATEGSGYEVSINDDRQGLPDAIQAEVFLHLTESLAQSVTHIAVKRGQRPAKPLLLMHITQGVAGEEVNTAHYRHHLDLAEGAEATVIEHFVSLNDARHFTGARFTINVAANAHLQHIKLAFENPLSHHFAHNDLLLAEDATAFSHSFLLGGAVLRHNTSTQLNGENSTLRINSLAMPVKNEVCDTRTWLEHNKGFCNSRQLHKTIVSDKGRAVFNGLINVAQHAIKTDGQMTNNNLLMGKLAEVDTKPQLEIYADDVKCSHGATVGRIDDEQIFYLRSRGINQQDAQQMIIYAFAAELTEALRDEGLKQQVLARIGQRLPGGAR
notes: SufD of the Escherichia coli sufABCDSE operon; One SufD per SufBCD complex (1:2:1); also called SufD subunit of the SufBCD complex
binds: all assays above
